From patent US20250011443A1 (published 2025)
Numbering of substitutions follows the chain as printed.

T1: SR344 (N-terminal 1st to 344th amino acids of soluble human IL-6R) (human, UniProt P08887 20-344, limits assumed)
T1 construct: also called recombinant soluble human IL-6 receptor; soluble human IL-6 receptor
T1 sequence (looked up): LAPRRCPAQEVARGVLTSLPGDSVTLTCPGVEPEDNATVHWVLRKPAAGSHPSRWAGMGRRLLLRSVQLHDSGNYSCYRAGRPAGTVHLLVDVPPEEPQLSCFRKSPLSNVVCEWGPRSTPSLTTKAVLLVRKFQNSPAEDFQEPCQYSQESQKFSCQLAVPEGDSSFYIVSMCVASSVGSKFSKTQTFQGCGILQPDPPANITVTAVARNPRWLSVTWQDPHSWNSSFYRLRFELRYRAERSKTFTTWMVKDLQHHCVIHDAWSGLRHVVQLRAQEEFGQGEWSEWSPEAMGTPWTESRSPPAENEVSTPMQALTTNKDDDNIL

B1: RDC_23 (antibody, V domains shown)
VH: QVQLQESGPGLVRPSQTLSLTCTVSGYSITSDHAWSWVRQPPGRGLEWIGYISYSGITTYNPSLKSRVTMLRDTSKNQFSLRLSSVTAADTAVYYCARVLARITAMDYWGQGSLVTVSS
VL: DIQMTQSPSSLSASVGDRVTITCRASQDISSYLNWYQQKPGKAPKLLIYYTSRLHSGVPSRFSGSGSGTDFTFTISSLQPEDIATYYCGQGNRLPYTFGQGTKVEIK
notes: also called RDC_5H / RDC_11L
B2: GPC3_H2L2 (antibody, human IgG1, kappa, V domains shown)
VH: QVQLVQSGAEVKKPGASVKVSCKASGYTFTDYEMHWVRQAPGQGLEWMGALDPKTGDTAYSQKFKGRVTLTADKSTSTAYMELSSLTSEDTAVYYCTRFYSYTYWGQGTLVTVSS
VL: DVVMTQSPLSLPVTPGEPASISCRSSQSLVHSNRNTYLHWYLQKPGQSPQLLIYKVSNRFSGVPDRFSGSGSGTDFTLKISRVEAEDVGVYYCSQNTHVPPTFGQGTKLEIKR
B3: GPC3_H3L3 (antibody, human IgG1, kappa, V domains shown)
VH: B2 VH with K19T, V37I, A40P, Q43E, M48I, L51I, Q62E, K63S, K65Q, G66D
VL: B2 VL with V2I, R24Q, S25A, Q27E, L109V, K112E

Legend:
[1] = target: T1, SR344 (N-terminal 1st to 344th amino …); assay: SPR (Biacore T100), antibody captured on Protein A/G, SR344 as analyte, 37 C
Protocol: A sensor chip was prepared by immobilizing about 3,000 RU of Protein A/G onto CM5 (Biacore) with the amine coupling method. […] The running buffer used was HBS-EP+, and the flow rate was 20 μl/min. […] After three minutes of interaction, the solution was switched with HBS-EP+(Biacore), and the dissociation phase was monitored for ten minutes. After measurement of the dissociation phase, the sensor chip was regenerated by washing with 10 μl of 10 mM glycine-HCl (pH 1.5). The association, dissociation, and regeneration constituted one analytic cycle. All experiments were carried out at 37° C.
All measurements described hereinafter in the Examples were carried out at 37° C. to kinetically analyze the antigen-antibody reaction using SR344 and protein A/G.

[2] = target: T2, soluble GPC3 core polypeptide (human, UniProt P51654 25-563); assay: competitive ELISA, soluble GPC3 core polypeptide on the plate, competitor biotinylated GPC3-H2L2
T2 construct: also called soluble GPC3 core protein; glypican 3 (antigen)
T2 sequence (P51654 other isoform, or with tags, fused parts or gaps limits assumed): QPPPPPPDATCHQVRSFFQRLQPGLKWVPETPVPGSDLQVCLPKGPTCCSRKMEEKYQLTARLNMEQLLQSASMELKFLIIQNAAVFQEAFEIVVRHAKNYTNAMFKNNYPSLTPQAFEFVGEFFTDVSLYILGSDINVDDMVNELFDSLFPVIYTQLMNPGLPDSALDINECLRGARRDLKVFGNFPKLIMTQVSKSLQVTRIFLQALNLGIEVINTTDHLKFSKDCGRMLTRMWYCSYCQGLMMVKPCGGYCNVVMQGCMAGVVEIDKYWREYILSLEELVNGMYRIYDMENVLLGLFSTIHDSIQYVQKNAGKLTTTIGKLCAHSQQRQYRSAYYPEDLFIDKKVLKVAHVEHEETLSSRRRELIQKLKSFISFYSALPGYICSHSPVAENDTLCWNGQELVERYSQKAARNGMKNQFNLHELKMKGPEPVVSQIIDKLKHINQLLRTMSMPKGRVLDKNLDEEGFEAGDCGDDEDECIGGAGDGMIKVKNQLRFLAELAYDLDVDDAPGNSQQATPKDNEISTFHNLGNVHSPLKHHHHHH
Protocol: The binding activities of prepared antibodies were determined by competitive ELISA. […] The plates were incubated at 4° C. overnight to immobilize the soluble GPC3 core polypeptide onto the plates. After washing the plates immobilized with the soluble GPC3 core polypeptide three times with washing buffer using SkanWasher 400 (Molecular Devices), 200 μl of blocking buffer was added thereto. The plates were incubated at 4° C. for 30 minutes or more for blocking. The plates immobilized with the soluble GPC3 core polypeptide and blocked were washed three times with washing buffer using SkanWasher 400. […] The plates were incubated at room temperature for one hour, and then washed five times with washing buffer using SkanWasher 400 (Molecular Devices). 100 μl of goat anti streptavidin alkaline phosphatase (Zymed) 20,000-times diluted with substrate buffer was added to each well. The plates were incubated at room temperature for one hour, and then washed five times with washing buffer using SkanWasher 400. Phosphatase Substrate (Sigma) was prepared at 1 mg/ml using substrate buffer, and added to each well (100 μl). The plates were incubated for one hour.

Row | Binder | fold weaker affinity for SR344 than for rhIL-6sR [1] [fold] | binding result [2]
1 | B1 | 2 | 
2 | B2 |  | binds
3 | B3 |  | binds
